B1: synthetic gp41 peptide (residues 596-606) with C-terminal amidation (peptide)
chain: WGCSGKLICTT-NH2
modifications: ends and bridges not checked
B2: Rh7B2 IgG1 (antibody, V domains shown)
VH: EVQLVESGGGLVQPGGSLRLSCAASGFTFTEYYMSWVRQAPGKGLEWVSYISKNGEYSYYADSVKGRFTISRDNAKNSLSLQMSSLRAEDTAVYYCTRADGLTYFSELLQYIFDLWGQGVLVTVSS
VL: DIVMTQSPDSLAVSLGERVTINCKSSQTLLYSSNNRHSIAWYQQKPGQAPKLLIYWASMRLSGVPNRFSGSGSGTDFTLTISGLQAEDVAVYYCHQYSSHPPTFGQGTKVEIK
B3: RhDH827 IgG1 (antibody, V domains shown)
VH: EVQLVESGGGLVQPGGSLRLSCAASGFTFSNCAMHWVRQAPGKGLEWVAVISYHGSNKYYADYVKGRFTISRDNSKNMLYLQMNNLKLEDTAVYYCAREGGAPSGWALDYWGQGVLVTVSS
VL: SYELTQSPSVSVSPGQPASITCSGDKLGDKYACWYQQKPGQVPVLVIYEDTKRPSGIPERFSGSNSGNTATLTISGVEAGDEADYYCQAWDSITHVVFGGGTRLTVL
B4: DH827 (human IgG1) (antibody, V domains shown)
VH: EVQLVESGGGVVQPGRSLRLSCAASGFTFSNCAMHWVRQAPGKGLEWVAVISYHGSNKYYADYVKGRFTISRDNSKSTVYLQMNSPRAEDTAVYYCAKEGGAPSGWALDYWGQGTLVTVSS
VL: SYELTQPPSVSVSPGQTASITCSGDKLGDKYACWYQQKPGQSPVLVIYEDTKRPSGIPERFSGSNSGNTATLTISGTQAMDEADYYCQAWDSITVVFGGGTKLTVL
B5: RM JR4 IgG1 (antibody, V domains shown)
VH: EVQLVESGPGLVKPLETLSLTCAVPGGSIRRNYWSWIRQPPGKGLEWIGHSYGSGGSTNYNPSLESRVTLSVDTSKNLFSLKLTSVTAADTAVYYCARTVWYYTSGTHYFDHWGQGVLVTVSS
VL: QSVLTQPPSVSAAPGQKVTISCSGSSSNIGRSYVSWYQQVPGAAPKLLIYDTNKRPSGVSDRFSGSKSGSSASLAITGLQTGDEADYYCGAWDGSLNVHIFGSGTKLTVL
B6: DH677.3 (human IgG1) (antibody, V domains shown)
VH: QVQLVQSGAEVQKPGASVKVSCKASGYTFASYDINWVRQATGQGLEWMGWMNPKTGNTGYAQKFQGRVTLTRNTSISTAYMELTSLRSEDTAVYYCATYRIIAAVGYRYFQYWGQGTLVTVSS
VL: DIQLTQSPSSLSASVGDSVTITCRASQGFGNYLAWYQQRPGKVPEVLIYAATTLQSGVPSRFSGSGSGTDFTLTISSLQPEDVATYYCQKYNSAPFTFGQGTRLEIK
B7: RhDH677.3 IgG1 (antibody, V domains shown)
VH: B6 VH with Q12K, V20L, A30T, T41P, L70M, N73D, I76T, T84S, T117A
VL: B6 VL with D1A, L4M, S18K, R39K, E45K, V46L, G57E

Numbering of substitutions follows the chain as printed. No end group written: not given here.

Holding throughout (experiment): SPR
(In general: SPR reads the build-up and loss of mass on a sensor chip optically.)

One assay addresses 7B2.
For assay [1], the target named is B1.
The target in assay [2] is B1.
The target of assay [3] is T1, V2 peptide corresponding to the clade A/E 92TH023 gp120 V2 loop sequence (residues 167-184) (HIV-1 clade A/E 92TH023).
The target of assay [4] is T1, V2 peptide corresponding to the clade …. The source holds these as a separate data set.
For assay [5], the target named is monomeric full length single chain (FLSC), a covalent dimer of gp120BaL and CD4 (HIV-1 BaL | , UniProt P01730).

As a reminder, the Kd is the constant that tells how readily two partners part at equilibrium. A higher Kd goes with a looser complex. As usually defined, the koff is the first-order rate constant of dissociation. High values mean a short-lived complex, low ones a long-lived complex. On to B1, for which, in the assay with 7B2, the Kd worked out at 634 nM and the koff stood at 0.000654 s⁻¹.
Consider B2, for which the koff in assay [1] is 0.000534 s⁻¹. In assay [2], this molecule displayed a Kd of 583 nM.
In assay [3], B3 had a koff of 0.000486 s⁻¹. Binding in assay [4] was characterised by a dissociation constant (Kd) of 2730 nM.
Molecule B4 gave a koff in assay [3] of 0.0069 s⁻¹. In assay [4], this molecule displayed a Kd of 3800 nM.
Regarding B5, in assay [5], the Kd amounted to 0.85 nM and the koff is 0.00013 s⁻¹.
For B6, in that order: 0.29 nM and 4.05e-05 s⁻¹.
In the case of B7, in assay [5], the affinity, expressed as Kd, was 2.54 nM and the koff came to 0.000189 s⁻¹.

The values are drawn from PMC8770954 (2021).
